Experimental data taken from patent US9764004B2 (Eli Lilly and Company, priority 2015, dated 2017).

What was measured:
[1] = Stability in Co-Formulation with GLP-1R Agonist (dulaglutide); type: physicochemical; details: four weeks, dulaglutide 3 mg/mL
Experimental: Examples 1 and 3 are prepared and dialyzed against C6.5 (10 mM Citrate pH 6.5) using the same method as described above for preparation into T7 buffer. Compounds are formulated separately at 1 mg/mL peptide in buffer C6.5, C6.5M (10 mM Citrate, 46.4 mg/mL D-mannitol, pH 6.5), C6.5T (10 mM Citrate, 0.02% polysorbate-80, pH 6.5), and C6.5MT (10 mM Citrate, 46.4 mg/mL D-mannitol, 0.02% polysorbate-80, pH 6.5). A stock concentration of 46.5 mg/mL of dulaglutide in C6.5 is used to formulate dulaglutide at 3 mg/mL in C6.5 and C6.5MT. Co-formulations in C6.5MT are prepared having 3 mg/mL dulaglutide and 1 mg/mL Example 1, or 3 mg/mL dulaglutide and 1 mg/mL Example 3. Each formulated sample is transferred to three vials and maintained at 4° C., 25° C. and 40° C. Samples are assessed every two weeks for a total of four weeks. Samples are visually assessed for turbidity and phase separation. Stability is assessed by RP-HPLC and SEC-HPLC as described above. Both described HPLC methods give good separation of Example compounds and dulaglutide main peaks as well as all degradation peaks produced by stressing the sample at pH 9 and 40° C. for 3 days.

[2] = molecular target: T1, human glucagon receptor (hGcg-R) (Homo sapiens, UniProt P47871); assay: hGcg-R functional cAMP assay; type: cell-based; details: geometric mean ± SEM
T1 construct: expressed in transfected cells; host or cells: 293HEK, plasmid phD, hygromycin selection

[3] = molecular target: human Glucagon-Like Peptide-1 receptor (hGLP-1R) (Homo sapiens, UniProt P43220); assay: hGLP-1-R functional cAMP assay

| EC50 [2] [nM] | EC50 [3] [nM] | Compound | GLP-1-Fc Δ % Main Peak ([1]; RP-HPLC, C6.5, 25° C.) [%] | GLP-1-Fc Δ % Main Peak ([1]; RP-HPLC, C6.5MT, 4° C.) [%] | GLP-1-Fc Δ % Main Peak ([1]; RP-HPLC, C6.5MT, 25° C.) [%] | GLP-1-Fc Δ % Main Peak ([1]; SEC-HPLC, C6.5, 4° C.) [%] | GLP-1-Fc Δ % Main Peak ([1]; SEC-HPLC, C6.5, 25° C.) [%] | GLP-1-Fc Δ % Main Peak ([1]; SEC-HPLC, C6.5, 40° C.) [%] | GLP-1-Fc Δ % Main Peak ([1]; SEC-HPLC, C6.5MT, 4° C.) [%] | GLP-1-Fc Δ % Main Peak ([1]; SEC-HPLC, C6.5MT, 25° C.) [%] | GLP-1-Fc Δ % Main Peak ([1]; SEC-HPLC, C6.5MT, 40° C.) [%] |
| --- | --- | --- | --- | --- | --- | --- | --- | --- | --- | --- | --- |
| – | – | dulaglutide | >−10 | −0.46 | −0.8 | 0.19 | −0.54 | >−10 | 0.29 | −0.87 | −0.83 |
